Paper PMC11098746 (2024)

B1: ADP377 (protein)
chain: FSECNKCDEKKERGLPAGDVLEPVQKPHEGPGEMGKPVVIPKEDQEKMKEMFKINQFNLMASEMIALNRSLPDVRLEGCKTKVYPDNLPTTSVVIVFHNEAWSTLLRTVHSVINRSPRHMIEEIVLVDDASERDFLKRPLESYVKKLKVPVHVIRMEQRSGLIRARLKGAAVSKGQVITFLDAHCECTVGWLEPLLARIKHDRRTVVCPIIDVISDDTFEYMAGSDMTYGGFNWKLNFRWYPVPQREMDRRKGDRTLPVRTPTMAGGLFSIDRDYFQEIGTYDAGMDIWGGENLEISFRIWQCGGTLEIVTCSHVGHVFRKATPYTFPGGTGQIINKNNRRLAEVWMDEFKNFFYIISPGVTKVDYGDISSRVGLRHKLQCKPFSWYLENIYPDSQIPRHYFSLGEIRNVETNQCLDNMARKENEKVGIFNCHGMGGNQVFSYTANKEIRTDDLCLDVSKLNGPVTMLKCHHLKGNQLWEYDPVKLTLQHVNSNQCLDKATEEDSQVPSIRDCNGSRSQQWLLRNVTLPEIF
modifications: bait human Fc-tagged dimer
B2: ADP268 (protein)
chain: WEYGDLHLFGPNQRPAPCYDPCEAVLVESIPEGLDFPNASTGNPSTSQAWLGLLAGAHSSLDIASFYWTLTNNDTHTQEPSAQQGEEVLRQLQTLAPKGVNVRIAVSKPSGPQPQADLQALLQSGAQVRMVDMQKLTHGVLHTKFWVVDQTHFYLGSANMDWRSLTQVKELGVVMYNCSCLARDLTKIFEAYWFLGQAGSSIPSTWPRFYDTRYNQETPMEICLNGTPALAYLASAPPPLCPSGRTPDLKALLNVVDNARSFIYVAVMNYLPTLEFSHPHRFWPAIDDGLRRATYERGVKVRLLISCWGHSEPSMRAFLLSLAALRDNHTHSDIQVKLFVVPADEAQARIPYARVNHNKYMVTERATYIGTSNWSGNYFTETAGTSLLVTQNGRGGLRSQLEAIFLRDWDSPYSHDLDTSADSVGNACRLL
modifications: bait human Fc-tagged dimer
B3: ADP115 (protein)
chain: MARPGQRWLGKWLVAMVVWALCRLATPLAKNLEPVSWSSLNPKFLSGKGLVIYPKIGDKLDIICPRAEAGRPYEYYKLYLVRPEQAAACSTVLDPNVLVTCNRPEQEIRFTIKFQEFSPNYMGLEFKKHHDYYITSTSNGSLEGLENREGGVCRTRTMKIIMKVGQDPNAVTPEQLTTSRPSKEADNTVKMATQAPGSRGSLGDSDGKHETVNQEEKSGPGASGGSSGDPDGFFNSKVAL
modifications: bait human Fc-tagged dimer
B4: ADP267 (protein)
chain: CKYKKSSGQLWSWMVCLAGLCAVCLLILSPFWGLILFSVSCFLMYTYLSGQELLPVDQKAVLVTGGDCGLGHALCKYLDELGFTVFAGVLNENGPGAEELRRTCSPRLSVLQMDITKPVQIKDAYSKVAAMLQDRGLWAVINNAGVLGFPTDGELLLMTDYKQCMAVNFFGTVEVTKTFLPLLRKSKGRLVNVSSMGGGAPMERLASYGSSKAAVTMFSSVMRLELSKWGIKVASIQPGGFLTNIAGTSDKWEKLEKDILDHLPAEVQEDYGQDYILAQRNFLLLINSLASKDFSPVLRDIQHAILAKSPFAYYTPGKGAYLWICLAHYLPIGIYDYFAKRHFGQDKPMPRALRMPNYKKKAT
modifications: bait human Fc-tagged dimer
B5: ADP151 (protein)
chain: MALTLSVLICLGLSVGPRTCVQAGTLPKPTLWAEPASVIARGKPVTLWCQGPLETEEYRLDKEGLPWARKRQNPLEPGAKAKFHIPSTVYDSAGRYRCYYETPAGWSEPSDPLELVATGFYAEPTLLALPSPVVASGGNVTLQCDTLDGLLTFVLVEEEQKLPRTLYSQKLPKGPSQALFPVGPVTPSCRWRFRCYYYYRKNPQVWSNPSDLLEILVPGVSRKPSLLIPQGSVVARGGSLTLQCRSDVGYDIFVLYKEGEHDLVQGSGQQPQAGLSQANFTLGPVSRSHGGQYRCYGAHNLSPRWSAPSDPLDILIAGLIPDIPALSVQPGPKVASGENVTLLCQSWHQIDTFFLTKEGAAHPPLCLKSKYQSYRHQAEFSMSPVTSAQGGTYRCYSAIRSYPYLLSSPSYPQELVVSGPSGDPSLSPTGSTPTPGPEDQPLTPTGLDPQSGLG
modifications: bait human Fc-tagged dimer
B6: ADP342 (protein)
chain: MATQLPAYVAILLFYVSRASCQDTFTAAVYEHAAILPNATLTPVSREEALALMNRNLDILEGAITSAADQGAHIIVTPEDAIYGWNFNRDSLYPYLEDIPDPEVNWIPCNNRNRFGQTPVQERLSCLAKNNSIYVVANIGDKKPCDTSDPQCPPDGRYQYNTDVVFDSQGKLVARYHKQNLFMGENQFNVPKEPEIVTFNTTFGSFGIFTCFDILFHDPAVTLVKDFHVDTIVFPTAWMNVLPHLSAVEFHSAWAMGMRVNFLASNIHYPSKKMTGSGIYAPNSSRAFHYDMKTEEGKLLLSQLDSHPSHSAVVNWTSYASSIEALSSGNKEFKGTVFFDEFTFVKLTGVAGNYTVCQKDLCCHLSYKMSENIPNEVYALGAFDGLHTVEGRYYLQICTLLKCKTTNLNTCGDSAETASTRFEMFSLSGTFGTQYVFPEVLLSENQLAPGEFQVSTDGRLFSLKPTSGPVLTVTLFGRLYEKDWASNASSGLT
modifications: bait human Fc-tagged dimer
B7: ADP392 (protein)
chain: GLTRSCDSSGDGGPGTAPAPSHLPSSTASPSGPPAQDQDICPASEDESGQWKNFRLPDFVNPVHYDLHVKPLLEEDTYTGTVSISINLSAPTRYLWLHLRETRITRLPELKRPSGDQVQVRRCFEYKKQEYVVVEAEEELTPSSGDGLYLLTMEFAGWLNGSLVGFYRTTYTENGQVKSIVATDHEPTDARKSFPCFDEPNKKATYTISITHPKEYGALSNMPVAKEESVDDKWTRTTFEKSVPMSTYLVCFAVHQFDSVKRISNSGKPLTIYVQPEQKHTAEYAANITKSVFDYFEEYFAMNYSLPKLDKIAIPDFGTGAMENWGLITYRETNLLYDPKESASSNQQRVATVVAHELVHQWFGNIVTMDWWEDLWLNEGFASFFEFLGVNHAETDWQMRDQMLLEDVLPVQEDDSLMSSHPIIVTVTTPDEITSVFDGISYSKGSSILRMLEDWIKPENFQKGCQMYLEKYQFKNAKTSDFWAALEEASRLPVKEVMDTWTRQMGYPVLNVNGVKNITQKRFLLDPRANPSQPPSDLGYTWNIPVKWTEDNITSSVLFNRSEKEGITLNSSNPSGNAFLKINPDHIGFYRVNYEVATWDSIATALSLNHKTFSSADRASLIDDAFALARAQLLDYKVALNLTKYLKREENFLPWQRVISAVTYIISMFEDDKELYPMIEEYFQGQVKPIADSLGWNDAGDHVTKLLRSSVLGFACKMGDREALNNASSLFEQWLNGTVSLPVNLRLLVYRYGMQNSGNEISWNYTLEQYQKTSLAQEKEKLLYGLASVKNVTLLSRYLDLLKDTNLIKTQDVFTVIRYISYNSYGKNMAWNWIQLNWDYLVNRYTLNNRNLGRIVTIAEPFNTELQLWQMESFFAKYPQAGAGEKPREQVLETVKNNIEWLKQHRNTIREWFFNLLESG
modifications: bait human Fc-tagged dimer
B8: ADP320 (protein)
chain: MAAAPGLLVWLLVLRLPWRVPGQLDPSTGRRFSEHKLCADDECSMLMYRGEALEDFTGPDCRFVNFKKGDPVYVYYKLARGWPEVWAGSVGRTFGYFPKDLIQVVHEYTKEELQVPTDETDFVCFDGGRDDFHNYNVEELLGFLELYNSAATDSEKAVEKTLQDMEKNPELSKEREPEPEPVEANSEESDSVFSENTEDLQEQFTTQKHHSHANSQANHAQGEQASFESFEEMLQDKLKVPESENNKTSNSSQVSNEQDKIDAYKLLKKEMTLDLKTKFGSTADALVSDDETTRLVTSLEDDFDEELDTEYYAVGKEDEENQEDFDELPLLTFTDGEDMKTPAKSGVEKYPTDKEQNSNEEDKVQLTVPPGIKNDDKNILTTWGDTIFSIVTGGEETRDTMDLESSSSEEEKEDDDDALVPDSKQGKPQSATDYSDPDNVDDGLFIVDIPKTNNDKEVNAEHHIKGKGRGVQESKRGLVQDKTELEDENQEGMTVHSSVHSNNLNSMPAAEKGKDTLKSAYDDTENDLKGAAIHISKGMLHEEKPGEQILEGGSESESAQKAAGNQMNDRKIQQESLGSAPLMGDDHPNASRDSVEGDALVNGAKLHTLSVEHQREELKEELVLKTQNQPRFSSPDEIDLPRELEDEVPILGRNLPWQQERDVAATASKQMSEKIRLSEGEAKEDSLDEEFFHHKAMQGTEVGQTDQTDSTGGPAFLSKVEEDDYPSEELLEDENAINAKRSKEKNPGNQGRQFDVNLQVPDRAVLGTIHPDPEIEESKQETSMILDSEKTSETAAKGVNTGGREPNTMVEKERPLADKKAQRPFERSDFSDSIKIQTPELGEVFQNKDSDYLKNDNPEEHLKTSGLAGEPEGELSKEDHENTEKYMGTESQGSAAAEPEDDSFHWTPHTSVEPGHSDKREDLLIISSFFKEQQSLQRFQKYFNVHELEALLQEMSSKLKSAQQESLPYNMEKVLDKVFRASESQILSIAEKMLDTRVAENRDLGMNENNIFEEAAVLDDIQDLIYFVRYKHSTAEETATLVMAPPLEEGLGGAMEEMQPLHEDNFSREKTAELNVQVPEEPTHLDQRVIGDTHASEVSQKPNTEKDLDPGPVTTEDTPMDAIDANKQPETAAEEPASVTPLENAILLIYSFMFYLTKSLVATLPD
modifications: bait human Fc-tagged dimer
B9: ADP379 (protein)
chain: PCPDRPASQRMWRIDYSAAVIYDFLAVDDINGDRIQDVLFLYKNTNSSNNFSRSCVDEGFSSPCTFAAAVSGANGSTLWERPVAQDVALVECAVPQPRGSEAPSACILVGRPSSFIAVNLFTGETLWNHSSSFSGNASILSPLLQVPDVDGDGAPDLLVLTQEREEVSGHLYSGSTGHQIGLRGSLGVDGESGFLLHVTRTGAHYILFPCASSLCGCSVKGLYEKVTGSGGPFKSDPHWESMLNATTRRMLSHSSGAVRYLMHVPGNAGADVLLVGSEAFVLLDGQELTPRWTPKAAHVLRKPIFGRYKPDTLAVAVENGTGTDRQILFLDLGTGAVLCSLALPSLPGGPLSASLPTADHRSAFFFWGLHELGSTSETETGEARHSLYMFHPTLPRVLLELANVSTHIVAFDAVLFEPSRHAAYILLTGPADSEAPGLVSVIKHKVRDLVPSSRVVRLGEGGPDSDQAIRDRFSRLRYQSEA
modifications: bait human Fc-tagged dimer
B10: ADP284 (protein)
chain: SNAYSSPSVVLASYNHDGTRNILDDFREAYFWLRQNTDEHARVMSWWDYGYQIAGMANRTTLVDNNTWNNSHIALVGKAMSSNETAAYKIMRTLDVDYVLVIFGGVIGYSGDDINKFLWMVRIAEGEHPKDIRESDYFTPQGEFRVDKAGSPTLLNCLMYKMSYYRFGEMQLDFRTPPGFDRTRNAEIGNKDIKFKHLEEAFTSEHWLVRIYKVKAPDNRETLDHKPRVTNIFPKQKYLSKKTTKRKRGYIKNKLVFKKGKKISKKTV
modifications: bait human Fc-tagged dimer

Each binder was assayed against Circumsporozoite protein (CSP) (Plasmodium falciparum (isolate 3D7), UniProt Q7K740) (assay: AVEXIS screen signal:noise (double-corrected)).
Chain of Circumsporozoite protein (CSP) (Q7K740 19-374): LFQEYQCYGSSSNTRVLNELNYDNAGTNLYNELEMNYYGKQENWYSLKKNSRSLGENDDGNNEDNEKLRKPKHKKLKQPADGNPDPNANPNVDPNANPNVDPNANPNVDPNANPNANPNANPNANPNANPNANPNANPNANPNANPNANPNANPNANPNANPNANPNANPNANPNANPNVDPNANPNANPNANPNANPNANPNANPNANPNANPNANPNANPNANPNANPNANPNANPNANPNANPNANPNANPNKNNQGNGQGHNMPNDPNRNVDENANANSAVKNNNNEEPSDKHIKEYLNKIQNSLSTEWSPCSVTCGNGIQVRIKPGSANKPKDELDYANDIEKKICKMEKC
For B1, the binding score was 0.747.
B2 showed a binding score of 0.585.
With B3 the binding score was 1.09.
In the case of B4, the binding score is reported as 0.806.
B5 showed a binding score of 1.33.
Work on B6 yielded a binding score of 1.71.
B7 gave a binding score of 0.793.
B8 was tested, and the binding score was 1.04.
With B9 the binding score was 2.44.
For B10, the binding score was 0.868.
